Assay results: the supplement of paper PMC10567573

B1: SPATS1 (parent)
chain: GRKKYDIDPRNGIPKLTPGDNPYM
B2: ZNF8 (parent)
chain: RTHTGEKPYTCSVCGKSFSRTTCL

Variants of: B1
Experiment: protein stability index of a GFP-peptide fusion (GPS, HEK-293T) (PSI 1-6); higher = more stable
Settings: c terminus: a fixed tail appended
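Further: lentivirally expressed fusions sorted by FACS into six bins by GFP to DsRed ratio, PSI derived from sequencing read proportions per bin multiplied by bin number.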

Variant	protein stability index
GRKKYDIDPRNGIPKLTPGDNPYW [M24W]	3.53
GRKKYDIDPRNGIPKLTPGDNPYK [M24K]	4.03
GRKKYDIDPRNGIPKLTPGDNPYG [M24G]	3.5
GRKKYDIDPRNGIPKLTPGDNPYN [M24N]	4.11
GRKKYDIDPRNGIPKLTPGDNPYF [M24F]	3.1
GRKKYDIDPRNGIPKLTPGDNPYQ [M24Q]	4.02
GRKKYDIDPRNGIPKLTPGDNPYR [M24R]	3.59
GRKKYDIDPRNGIPKLTPGDNPYC [M24C]	3.73
GRKKYDIDPRNGIPKLTPGDNPYE [M24E]	4.56
GRKKYDIDPRNGIPKLTPGDNPYH [M24H]	3.76
GRKKYDIDPRNGIPKLTPGDNPYA [M24A]	4.21
GRKKYDIDPRNGIPKLTPGDNPYL [M24L]	3.62
GRKKYDIDPRNGIPKLTPGDNPYI [M24I]	3.46
GRKKYDIDPRNGIPKLTPGDNPYT [M24T]	4.04
GRKKYDIDPRNGIPKLTPGDNPYS [M24S]	4.21
GRKKYDIDPRNGIPKLTPGDNPYY [M24Y]	3.73
GRKKYDIDPRNGIPKLTPGDNPYV [M24V]	4.22
GRKKYDIDPRNGIPKLTPGDNPYP [M24P]	3.98
GRKKYDIDPRNGIPKLTPGDNPYD [M24D]	4.4
GRKKYDIDPRNGIPKLTPGDYPYM [N21Y]	3.06
GRKKYDIDPRNGIPKLTPGDPPYM [N21P]	3.54
GRKKYDIDPRNGIPKLTPGDRPYM [N21R]	3.41

Variant	protein stability index
GRKKYDIDPRNGIPKLTPGDWPYM [N21W]	2.63
GRKKYDIDPRNGIPKLTPGDSPYM [N21S]	3.72
GRKKYDIDPRNGIPKLTPGDVPYM [N21V]	3.14
GRKKYDIDPRNGIPKLTPGDMPYM [N21M]	3.32
GRKKYDIDPRNGIPKLTPGDTPYM [N21T]	3.46
GRKKYDIDPRNGIPKLTPGDQPYM [N21Q]	3.67
GRKKYDIDPRNGIPKLTPGDNDYM [P22D]	3.91
GRKKYDIDPRNGIPKLTPGDNTYM [P22T]	4.01
GRKKYDIDPRNGIPKLTPGDNIYM [P22I]	3.64
GRKKYDIDPRNGIPKLTPGDNFYM [P22F]	3.02
GRKKYDIDPRNGIPKLTPGDNKYM [P22K]	3.89
GRKKYDIDPRNGIPKLTPGDNVYM [P22V]	3.42
GRKKYDIDPRNGIPKLTPGDNGYM [P22G]	3.53
GRKKYDIDPRNGIPKLTPGDNRYM [P22R]	4.22
GRKKYDIDPRNGIPKLTPGDNSYM [P22S]	3.54
GRKKYDIDPRNGIPKLTPGDNWYM [P22W]	2.62
GRKKYDIDPRNGIPKLTPGDNLYM [P22L]	3.31
GRKKYDIDPRNGIPKLTPGDNCYM [P22C]	3.34
GRKKYDIDPRNGIPKLTPGDNAYM [P22A]	4.01
GRKKYDIDPRNGIPKLTPGDNMYM [P22M]	3.37
GRKKYDIDPRNGIPKLTPGDNQYM [P22Q]	3.98
GRKKYDIDPRNGIPKLTPGDNHYM [P22H]	3.74

Variant	protein stability index
GRKKYDIDPRNGIPKLTPGDNYYM [P22Y]	3.44
GRKKYDIDPRNGIPKLTPGDNNYM [P22N]	3.64
GRKKYDIDPRNGIPKLTPGDNEYM [P22E]	3.85
GRKKYDIDPRNGIPKLTPGDNPWM [Y23W]	3.05
GRKKYDIDPRNGIPKLTPGDNPCM [Y23C]	3.26
GRKKYDIDPRNGIPKLTPGDNPMM [Y23M]	3.82
GRKKYDIDPRNGIPKLTPGDNPHM [Y23H]	3.93
GRKKYDIDPRNGIPKLTPGDNPNM [Y23N]	4.43
GRKKYDIDPRNGIPKLTPGDNPAM [Y23A]	4.3
GRKKYDIDPRNGIPKLTPGDNPGM [Y23G]	4.04
GRKKYDIDPRNGIPKLTPGDNPFM [Y23F]	3.37
GRKKYDIDPRNGIPKLTPGDNPKM [Y23K]	4.41
GRKKYDIDPRNGIPKLTPGDNPPM [Y23P]	4.41
GRKKYDIDPRNGIPKLTPGDNPQM [Y23Q]	4.56
GRKKYDIDPRNGIPKLTPGDNPSM [Y23S]	3.94
GRKKYDIDPRNGIPKLTPGDNPDM [Y23D]	4.84
GRKKYDIDPRNGIPKLTPGDNPIM [Y23I]	3.72
GRKKYDIDPRNGIPKLTPGDNPEM [Y23E]	4.61
GRKKYDIDPRNGIPKLTPGDNPTM [Y23T]	4.6
GRKKYDIDPRNGIPKLTPGDNPLM [Y23L]	4.48
GRKKYDIDPRNGIPKLTPGDNPRM [Y23R]	4.34
GRKKYDIDPRNGIPKLTPGDNPVM [Y23V]	4.18

Variants of: B2
Experiment: as above
Settings: c terminus: a fixed tail appended

Variant	protein stability index
RTMTGEKPYTCSVCGKSFSRTTCL [H3M]	2.37
RTDTGEKPYTCSVCGKSFSRTTCL [H3D]	2.82
RTNTGEKPYTCSVCGKSFSRTTCL [H3N]	2.72
RTQTGEKPYTCSVCGKSFSRTTCL [H3Q]	2.2
RTSTGEKPYTCSVCGKSFSRTTCL [H3S]	2.66
RTITGEKPYTCSVCGKSFSRTTCL [H3I]	2.21
RTKTGEKPYTCSVCGKSFSRTTCL [H3K]	2.05
RTPTGEKPYTCSVCGKSFSRTTCL [H3P]	2.46
RTTTGEKPYTCSVCGKSFSRTTCL [H3T]	2.44
RTYTGEKPYTCSVCGKSFSRTTCL [H3Y]	2.27
RTATGEKPYTCSVCGKSFSRTTCL [H3A]	1.86
RTCTGEKPYTCSVCGKSFSRTTCL [H3C]	2.77
RTVTGEKPYTCSVCGKSFSRTTCL [H3V]	2.82
RTWTGEKPYTCSVCGKSFSRTTCL [H3W]	1.82
RTGTGEKPYTCSVCGKSFSRTTCL [H3G]	2.86
RTFTGEKPYTCSVCGKSFSRTTCL [H3F]	2.08
RTLTGEKPYTCSVCGKSFSRTTCL [H3L]	1.88
RTRTGEKPYTCSVCGKSFSRTTCL [H3R]	2.15
RTETGEKPYTCSVCGKSFSRTTCL [H3E]	2.72
RTHKGEKPYTCSVCGKSFSRTTCL [T4K]	3.02
RTHIGEKPYTCSVCGKSFSRTTCL [T4I]	2.13
RTHEGEKPYTCSVCGKSFSRTTCL [T4E]	3.43
RTHCGEKPYTCSVCGKSFSRTTCL [T4C]	2.32
RTHNGEKPYTCSVCGKSFSRTTCL [T4N]	3.12
RTHAGEKPYTCSVCGKSFSRTTCL [T4A]	2.1
RTHVGEKPYTCSVCGKSFSRTTCL [T4V]	1.93
RTHQGEKPYTCSVCGKSFSRTTCL [T4Q]	2.31
RTHLGEKPYTCSVCGKSFSRTTCL [T4L]	2.18
